# Test results: patent US20240425587A1 (Alector, published 2024)
# B1: E12 (antibody, V domains shown)
# VH: QVQLQQSGAELAKPGASVKLSCKASGYTFTSYWIHWVKQRPGQGLEWIGYINPSSGDTEYNQKFKDKATLTADKSSNTAYMQLSSLTYEDSAVYYCARSAPDDGYYDYAMDYWGQGTSVTVSS
# VL: DIVMTQSRKFMSTSVGDRVSVTCKASQNVGSNVAWYQQKPGQSPKGLTYSASYRYSGVPDRFTGSGSGTDFTLTISNVQSEDLAEYFCQQYNSYPYTFGGGTKLEIK
# notes: B-cell cloning campaign (mice)
# B2: D2 (antibody, V domains shown)
# VH: QIQLGQSGPELKRPRETVKISCKASGYTFTTYGMSWVKQAPGKGLRWMGWINTHSGVPAYADDFKGRFAFSLETSANTAFLQINNLENEDTATYFCAKDYNWGMDYWGQGTSVIVSS
# VL: QLVLTQSSSASFSLGASAKLTCTLSSQHSTYTIEWYQQQPLKPPKYVMEVKKDGSHSTGDGIPDRFSGSSSGADRYLSISNIQPEDEAIYICGVGDSIKEQFVYVFGGGTKVTVL
# notes: second hybridoma campaign
# B3: D5 (antibody, V domains shown)
# VH: EVKLDETGGGLVQPGRPMKLSCVASGFTFSDYWMNWVRQSPEKGLEWVAQIRNKLYNYETYYSDSVKGRFTISRDDSKSSVYLQMNNLRAEDMGIYYCTVGLAMDYWGQGTSVTVSS
# VL: DIQMTQSSSSFSVSLGDRVTITCKASEDIYNRLAWYQQKPGNAPRLLISGATSLETGVPSRFSGSGSGKEYTLNITSLQTEDVATYYCQQYWSTPTFGGGTKLEIK
# notes: second hybridoma campaign
# B4: E20 (antibody, V domains shown)
# VH: QIQLVQSGPELKKPGETVKISCKASGYTFTTYGMSWVKQAPGKGLKWMGWINTYSGVPTYADDFKGRFAFSLETSASTAYLQINNLKNEDTATYFCARYDGYLDYWGQGTTLTVSS
# VL: DIVLTQSPASLAVSLGQRATISCKASQSVDYDGDSYMNWYQQKPGQPPKLLIYAASNLESGIPARFSGSGSGTDFTLNIHPVEEEDAATYYCQQSNEDLTFGSGTKLEIK
# notes: as for B1
# B5: D3 (antibody, V domains shown)
# VH: QVQLQQPGADLVKPGASVKVSCKTSGYSFTSYWIHWVKQRPGQGLEWIGRVHPSDSDTDYSQKFKGKATLTVDDSSSTVYMQLTNLTSEDSAVYYCAIEWGYLFDYWGQGTTLSVSS
# VL: DIVLTQSPISLAVSLGQRATISCWASQSVSTSSYSYVHWYQQKPGQPPKLLIKYASNLDSGVPARFSGSGSGTDFTLNIHPVDEEDTATYYCHHNWEIPYTFGGGTKLEIK
# notes: second hybridoma campaign
# B6: B1 (antibody, V domains shown)
# VH: DVKLVESGGGLVKLGGSLKLSCAASGFTFSSYYMSWVRQTPEKRLEWVAAINSNGDRSYYPDTVKGRFTISRDNAKNTLYLQMSSLKSEDTAFYYCASHGNYYGSPWFAYWGQGTLVTVSA
# VL: ETTVTQSPASLSVATGEKVTIRCKTSTDIDDDMNWYQQKPGEPPKLLISEGNTLRPGVPSRFSSSGYGTDFVFTIENTLSEDVADYYCLQNDHMPLTFGGGTKLEIK
# notes: as for B1
# B7: D6 (antibody, V domains shown)
# VH: EVQLQQSGPELVKPGASVKMSCKASGYTFTDYYMDWVKQSHGESFEWIGRVNPYTGDSSYNQKFKGKATLTVDKSSNTAYLEFNSLTSEGSAVYYCARSDGYHYKYAMDYWGQGTSVTVSS
# VL: DVVMTQTPLSLPVSLGDQASISCRSSQSLVHSTGNTYLHWYLQKPGQSPNLLIYKISNRFSGVPDRFSGSGSGTDFTLKISRVEAEDLGVYFCSQSTHVPYTFGGGTKLEIK
# notes: second hybridoma campaign; same VH/VL as D8
# B8: D8 (antibody, V domains shown)
# VH: B7 VH
# VL: B7 VL
# notes: second hybridoma campaign; same VH/VL as D6
# B9: D4 (antibody, V domains shown)
# VH: QVQLQQSGADLARPGASVKLSCKASGYTFTSYGIAWMKQRTGQGLEWIGEIYPRSGNPYYNDRFKGKATLTADRSSNTTYMELRSLTSEDSAVYFCARWVGGIIDYWGQGTSVTVSS
# VL: DIVMTQSQKFMSTSIGDRVSVTCKASQNVGFNVAWYQQKPGQSPKPLIYSASYRYSGVPDRFTGSESGTEFTLIISNVQSEDLAEYFCQQYDSYPFTFGSGTNLEIK
# notes: second hybridoma campaign
# B10: D7 (antibody, V domains shown)
# VH: QVQLKESGPGLVAPSQSLSITCTVSGFSLTSYAISWVRQPPGKGLEWLGIIWTGGDTNYNSGLKSRLSITKDNSKSQVFLKMNSLQTDDTSRYYCARNSLFYGITPYYFDYWGQGTTLTVSS
# VL: DIVLTQSPATLSVTPGDSVSLSCRASQSIRNDLHWYQQKSHESPRLLIKYASQSISGIPSRFSGSGSGTDFTLTINVLETEDFGMYFCQQSNGWPLTFGAGTKLELK
# notes: second hybridoma campaign
# Biological target: T1, human PILRA, c-term His-Avi tag (human, UniProt Q9UKJ1 20-197, limits assumed)
# T1 construct: not shown: C-terminal His-Avi tag
# T1 sequence (Q9UKJ1 20-197 limits assumed): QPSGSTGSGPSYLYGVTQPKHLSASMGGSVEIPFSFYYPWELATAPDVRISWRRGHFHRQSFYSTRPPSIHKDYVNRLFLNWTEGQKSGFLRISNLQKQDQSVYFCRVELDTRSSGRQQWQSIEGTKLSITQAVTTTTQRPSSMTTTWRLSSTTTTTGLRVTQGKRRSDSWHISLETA
# Assay: SPR (Biacore), antibody captured, PILRA as analyte
# Outline: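 Antibodies were captured at 10 μg/ml on an anti-huFc or anti-msFc CM5 surface, and human PILRA was flowed at 33, 100 and 300 nM in HBSTE/0.5% BSA, pH 7.4. The surface was regenerated with 10 mM glycine-HCl, pH 2.1, after each analyte. Curves were double-referenced with buffer injections.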
Binder,Kd,koff,kon,t½
B1,65.6 nM,0.0012 s⁻¹,18000 M⁻¹ s⁻¹,9.6 min
B2,< 1.3 nM,< 0.0001 s⁻¹,75000 M⁻¹ s⁻¹,
B3,36.8 nM,0.0014 s⁻¹,37000 M⁻¹ s⁻¹,8.5 min

# Biological target: T2, PILRA Fc (soluble human PILRA) (human, UniProt Q9UKJ1 20-197, limits assumed)
# T2 construct: also called soluble PILRA; not shown: Fc part, detected with anti-human IgG
# T2 sequence (Q9UKJ1 20-197 limits assumed): as above
# Assay: flow cytometry; blocking of PILRA Fc binding to human CD3+ T cells (Donor 1019)
# Procedure: The ability of conditioned media samples containing antibodies to inhibit the binding of PILRA Fc to human CD3+ T cells was assessed. Briefly, conditioned media samples containing antibodies were incubated with 1.25 ug/ml PILRA Fc for 30 min at 4° C. and then added to human T cells. After 30 minutes incubation at 4° C., cells were washed, and bound PILRA Fc was detected with anti-human IgG Alexa 647. Cells were analyzed by flow cytometry on FACS Canto II, and for all cell lines, the amount of PILRA Fc binding (MIFI) and the percentage of PILRA Fc binding in the presence of conditioned media relative to PILRA Fc binding alone was calculated. Several antibodies inhibited binding of PILRA Fc to human T cells, and a few antibodies enhanced PILRA-Fc binding to T cells. Antibodies that show enhancement in this assay may block cis inhibition to promote trans interactions or may allosterically activate to enhance trans interactions without blocking cis.
row,Binder,IC50
1,B1,2.2 µg/mL
2,B4,5.1 µg/mL
3,B2,3.3 µg/mL
4,B5,2.9 µg/mL
5,B3,4.56 µg/mL
6,B6,2.2 µg/mL
7,B7,3.13 µg/mL
8,B8,2 µg/mL
9,B9,3.77 µg/mL
10,B10,5.75 µg/mL

# Biological target: T3, murine PILRB, ectopically expressed on 293 cells (murine, UniProt Q2YFS2 29-224)
# T3 construct: whole, on cells; also called mB
# T3 sequence (Q2YFS2 29-224): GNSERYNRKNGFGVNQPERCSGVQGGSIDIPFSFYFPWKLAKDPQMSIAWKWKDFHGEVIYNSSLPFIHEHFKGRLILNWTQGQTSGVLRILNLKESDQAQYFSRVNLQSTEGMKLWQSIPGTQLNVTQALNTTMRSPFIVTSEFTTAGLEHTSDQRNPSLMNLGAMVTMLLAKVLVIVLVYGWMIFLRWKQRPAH
# Assay: flow cytometry, 293 cells expressing target
# Procedure: (§1) Briefly, conditioned media containing antibodies were incubated with 293 cells for 30 min at 4° C., washed twice, and then detected with anti-mouse IgG Alexa 647.
row,Binder,binding result
1,B1,no binding
2,B4,no binding
3,B2,no binding
4,B5,no binding
5,B3,no binding
6,B6,no binding
7,B7,no binding
8,B8,no binding
9,B9,no binding
10,B10,no binding

# Biological target: T4, human PILRA, G78 variant, ectopically expressed on 293 cells (human, UniProt Q9UKJ1 20-303)
# T4 construct: the cells are labelled G78; also called hA G78 OE; hA
# T4 sequence (Q9UKJ1 other isoform, or with tags, fused parts or gaps mutant): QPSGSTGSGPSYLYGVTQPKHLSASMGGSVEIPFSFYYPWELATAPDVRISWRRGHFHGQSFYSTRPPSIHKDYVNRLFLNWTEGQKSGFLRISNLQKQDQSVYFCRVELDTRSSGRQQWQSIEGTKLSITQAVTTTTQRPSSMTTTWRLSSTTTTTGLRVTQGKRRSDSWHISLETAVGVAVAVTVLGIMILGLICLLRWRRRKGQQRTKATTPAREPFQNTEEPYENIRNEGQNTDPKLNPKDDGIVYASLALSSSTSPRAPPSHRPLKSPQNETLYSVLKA
# Assay: flow cytometry, 293 cells expressing target
# Procedure: as §1
row,Binder,EC50
1,B1,31 µg/mL
2,B4,33.5 µg/mL
3,B2,3.4 µg/mL
4,B5,0.2 µg/mL
5,B3,1 µg/mL
6,B6,0.96 µg/mL
7,B7,0.12 µg/mL
8,B8,0.1 µg/mL
9,B9,0.4 µg/mL
10,B10,0.3 µg/mL

# Biological target: T5, murine PILRA, ectopically expressed on 293 cells (murine, UniProt Q2YFS3 32-302)
# T5 construct: also called mA
# T5 sequence (Q2YFS3 32-302): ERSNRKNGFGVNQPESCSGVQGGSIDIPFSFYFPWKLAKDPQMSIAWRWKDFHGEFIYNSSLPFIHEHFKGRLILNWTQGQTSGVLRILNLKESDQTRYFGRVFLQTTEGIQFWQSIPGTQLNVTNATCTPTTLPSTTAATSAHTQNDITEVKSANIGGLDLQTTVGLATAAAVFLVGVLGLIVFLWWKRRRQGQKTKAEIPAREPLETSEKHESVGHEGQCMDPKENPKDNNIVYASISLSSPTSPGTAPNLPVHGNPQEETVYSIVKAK
# Assay: flow cytometry, 293 cells expressing target
# Procedure: as §1
row,Binder,binding result
1,B1,no binding
2,B4,no binding
3,B2,no binding
4,B5,no binding
5,B3,no binding
6,B6,no binding
7,B7,no binding
8,B8,no binding
9,B9,no binding
10,B10,no binding

# Biological target: T6, human PILRB, ectopically expressed on 293 cells (human, UniProt Q9UKJ0 20-227)
# T6 construct: also called hB
# T6 sequence (Q9UKJ0 20-227): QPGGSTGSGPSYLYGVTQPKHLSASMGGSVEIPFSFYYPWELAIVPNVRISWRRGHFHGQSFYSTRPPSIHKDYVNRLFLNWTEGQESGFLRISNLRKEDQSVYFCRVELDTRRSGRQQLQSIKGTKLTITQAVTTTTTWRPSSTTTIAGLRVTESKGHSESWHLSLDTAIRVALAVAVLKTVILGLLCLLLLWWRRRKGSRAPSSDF
# Assay: flow cytometry, 293 cells expressing target
# Procedure: as §1
Binder,binding result,EC50
B1,no binding,
B4,no binding,
B2,no binding,
B5,no binding,
B3,no binding,
B6,no binding,
B7,,0.47 µg/mL
B8,,0.35 µg/mL
B9,no binding,
B10,,21.2 µg/mL

# Biological target: cynomolgus PILRA, ectopically expressed on 293 cells (cynomolgus monkey)
# Sequence (chain, as listed by the source): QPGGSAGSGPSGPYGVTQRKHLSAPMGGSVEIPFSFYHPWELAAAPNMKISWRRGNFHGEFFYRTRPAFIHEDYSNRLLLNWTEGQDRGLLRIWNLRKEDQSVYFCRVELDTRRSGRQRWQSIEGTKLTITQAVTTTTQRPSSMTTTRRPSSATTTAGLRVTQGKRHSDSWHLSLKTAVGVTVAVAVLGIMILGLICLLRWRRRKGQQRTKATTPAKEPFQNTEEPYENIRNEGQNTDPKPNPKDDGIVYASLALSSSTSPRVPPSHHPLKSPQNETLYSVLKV
# Assay: flow cytometry, 293 cells expressing target
# Procedure: as §1
Binder,binding result,EC50
B1,no binding,
B4,no binding,
B2,no binding,
B5,no binding,
B3,no binding,
B6,,2 µg/mL
B7,,0.05 µg/mL
B8,,0.1 µg/mL
B9,no binding,
B10,,1 µg/mL
